We go through 16 molecules from patent US20240360223A1 (DRAGONFLY THERAPEUTICS, published 2024).

Broadly, the EC50 is the concentration giving half of the maximal effect. As usually defined, the IC50 is the point on the concentration scale where inhibition reaches its midpoint. The EC50 (read off the curve) is the midpoint of the concentration-response curve.

Assay [1] deals with T1, human BAFF-R expressed on cells (human, UniProt Q96RJ3 1-184).
T1 construct: Cell surface BAFF-R, endogenous on B cell lines and primary B cells or overexpressed on isogenic CHO cells; also called hBAFF-R; hBAFF-R-CHO
Description: told of the group of Table 17, reference AB0369; format not given.

In assay [2] the target is T1, human BAFF-R expressed on cells. Description: cell-based or functional assay.
For assay [3] the target is unchanged. Briefly: flow cytometry, BAFF-R-CHO cells. (Flow cytometry measures light scatter and fluorescence of single cells or particles in a stream.)
The target is the same in assay [4]. Description: flow cytometry, hBAFF-R+ cells.
Assay [5] deals with T2, cynomolgus monkey BAFF-R expressed on cells (cynomolgus monkey).
T2 construct: whole, on cells; also called cBAFF-R; cynoBAFF-R
Description: flow cytometry, cBAFF-R+ cells.

The target in assay [6] is T1, human BAFF-R expressed on cells. Briefly: blocking of BAFF-biotin on hBAFF-R CHO cells.
The target is the same in assay [7]. Description: flow cytometry, hBAFF-R+ cells. This is another data set of the same source.
The target is the same in assay [8]. Description: flow cytometry, human BAFF-R CHO cells.
In assay [9] the target is T2, cynomolgus monkey BAFF-R expressed on …. Description: flow cytometry, cyno BAFF-R CHO cells.
For assay [10], the target named is T1, human BAFF-R expressed on cells. Description: blocking of BAFF-biotin on BAFF-R CHO cells.
Assay [11] has the same target. Description: flow cytometry, human BAFF-R CHO cells. The source holds these as a separate data set.
Assay [12] deals with T2, cynomolgus monkey BAFF-R expressed on …. Description: flow cytometry, cyno BAFF-R CHO cells. This is another data set of the same source.
Assay [13] concerns the target T1, human BAFF-R expressed on cells. Briefly: flow cytometry on hBAFFR-CHO cells, anti-mouse IgG(H+L)-PE.
For assay [14] the target is unchanged. Briefly: flow cytometry on hBAFFR-CHO cells, anti-mouse (H+L)-PE.
Assay [15] deals with T2, cynomolgus monkey BAFF-R expressed on …. Briefly: flow cytometry on cBAFFR-CHO cells.
Assay [16] concerns the target T1, human BAFF-R expressed on cells. Description: blocking of BAFF-biotin on hBAFF-R CHO cells, flow cytometry. As to the method: Briefly, CHO cells expressing human BAFF-R were harvested, washed in cold FACS buffer, and seeded at a density of 100,000 cells per well. Test articles were diluted in FACS buffer, and 50 μL of diluted multispecific binding protein or mAb was added to cells, incubated on ice for 60 minutes, then washed with FACS buffer. […] Cells were incubated with 100 μL of 1:200 streptavidin-PE diluted in FACS buffer and incubated on ice for 30 minutes then washed with FACS buffer. Cells were then incubated in 100 μL of 1:1,000 dilution of live/dead dye in PBS for 15 minutes, then washed with FACS buffer, and fixed. After incubation, cells were washed with FACS buffer and resuspended in FACS buffer for analysis with flow cytometry. Median fluorescent intensity (MFI) of each sample and the secondary-only control was calculated. […] Data were fit to a four-parameter non-linear regression curve using GraphPad Prism.

Assay [17] has the same target. Briefly: flow cytometry blocking assay on hBAFFR-CHO cells; blocked ligand: 20 nM BAFF-biotin.
Assay [18] shares this target. Described as above. This is another data set of the same source.
Assay [19] shares this target. Briefly: flow cytometry, RAJI cells. The procedure:
The BAFF-R positive human B lymphoblastoid RAJI cell line was used to assess TriNKET binding to cell surface BAFF-R. Certain BAFF-R TriNKETs in the 2-Fab and F3′ formats, as described in the “exemplary multispecific binding proteins” subsection above, were diluted and incubated with Raji cells. Binding patterns of TriNKETs and parental monoclonal antibodies were detected using a fluorophore conjugated anti-human IgG secondary antibody. The cells were then incubated with a fluorophore conjugated anti-human IgG secondary antibody and were analyzed by flow cytometry. The mean fluorescence intensity (MFI) values were normalized to secondary antibody only controls to obtain fold over background (FOB) values.

Assay [20] shares this target. Briefly: flow cytometry blocking assay on hBAFFR-CHO cells; blocked ligand: 20 nM BAFF-biotin. This is another data set of the same source.
Assay [21] has the same target. Description: flow cytometry on hBAFFR-CHO cells.

Positions count from the first letter of the chain named. Like-named read-outs stand apart in the source and are kept apart here. Where only a bound is given, the exact number is not on record here.

B1: AB0605 (bispecific antibody, V domains shown)
VH: EVQLVQSGGGVVQPGRSLRLSCAASGFTFSSYGMHWVRQAPGKCLEWVAVIWYDGSNKYYGDSVKGRFTISRDNSKNTLYLQMNSLRDEDTAVYYCARRFTMLRGQYIEDYGMDVWGQGTTVTVSS
VL: not shown
notes: also called AB0605-001
Regarding B1, in assay [1], the “fold improvement in BAFF-R binding against AB0369” value (“fold improvement in BAFF-R binding” below) is above 3 fold. In addition, the “KHYG-A-CD16Av mediated Cytolysis of Ramos cells EC50” value (“KHYG-A-CD16Av mediated Cytolysis” below) in assay [2] was found to be 0.15 nM. In assay [3], the midpoint of the response, the EC50, lay at 5.72 nM.

B2: AB0900 (bispecific antibody, V domains shown)
VH: B1 VH with Y32S, G55A, M102S, Q106W, M113L
VL: not shown
Take B2: the EC50 in assay [4] is 11.7 nM.

B3: AB1080 (bispecific antibody, V domains shown)
VH: B1 VH with G55A, M102H, Q106W, M113L
VL: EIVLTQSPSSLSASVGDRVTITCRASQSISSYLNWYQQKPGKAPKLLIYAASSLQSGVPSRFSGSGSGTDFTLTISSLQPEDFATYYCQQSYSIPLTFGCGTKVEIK
notes: also called AB1080-002; AB1080-003
For the molecule B3, the half-maximal effective concentration (EC50) in assay [5] turned out to be 1.36 nM; in assay [7] it was 1.97 nM; in assay [8] it was 2.71 nM; in assay [9], 2.36 nM. The molecule further showed an IC50 in assay [6] of 5.72 nM.

B4: AB0899 (bispecific antibody, V domains shown)
VH: B1 VH with Y32S, G55A, M102Y, Q106W, M113L
VL: not shown
B4 returned an EC50 in assay [4] of 4.3 nM.

B5: AB1081 (bispecific antibody, V domains shown)
VH: B1 VH with T28A, G55E, K76R, M102N, Q106W, Y107I, M113L
VL: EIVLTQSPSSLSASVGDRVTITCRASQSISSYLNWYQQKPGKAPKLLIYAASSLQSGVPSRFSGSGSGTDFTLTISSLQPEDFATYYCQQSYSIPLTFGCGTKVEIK
notes: also called AB1081-002
For the molecule B5, the values for the EC50 in [5] and in [7] were above 14 nM and above 8 nM, respectively.

B6: AB1085 (bispecific antibody, V domains shown)
VH: B1 VH with S30G, M102H
VL: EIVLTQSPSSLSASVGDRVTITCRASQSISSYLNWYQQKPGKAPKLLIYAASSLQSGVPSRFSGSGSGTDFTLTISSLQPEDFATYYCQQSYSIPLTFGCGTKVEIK
notes: also called AB1085-001
As for B6, the EC50 in assay [5] was 4.34 nM; in assay [7], 5.78 nM; in assay [8] it was 4.48 nM; in [9] it was 3.29 nM. The IC50 in assay [6] worked out at 12.7 nM.

B7: AB0898 (bispecific antibody, V domains shown)
VH: B1 VH with Y32S, G55A, M102R, Q106W, M113L
VL: not shown
Turning to B7, the EC50 in assay [4] is 4.3 nM.

B8: AB0679 (bispecific antibody, V domains shown)
VH: B1 VH with T28P, Q106W
VL: not shown
notes: also called AB0679-001
As to B8, the midpoint of inhibition in [10], the IC50, lay at 9.4 nM. Moreover, the results for the EC50 in assay [11] and in assay [12] were 2.3 nM and 2.6 nM, respectively.

B9: AB0606 (bispecific antibody, V domains shown)
VH: B1 VH with Q106W
VL: not shown
notes: also called AB0606-001
Turning to B9, the “fold improvement in BAFF-R binding” value in [1] was above 3 fold. Also, the “KHYG-A-CD16Av mediated Cytolysis” value in [2] came to 0.06 nM. Besides, the EC50 in [3] was 4.5 nM.

B10: AB0682 (bispecific antibody, V domains shown)
VH: B1 VH with Y32S, Q106W
VL: not shown
notes: also called AB0682-001
In the case of B10, half-maximal inhibition in [10] (IC50) required 12.6 nM. Further, the results for the EC50 in assay [11] and in [12] were 2.4 nM and 3.1 nM, respectively.

B11: AB0622 (bispecific antibody, V domains shown)
VH: B1 VH with Q106W, Y107I
VL: not shown
notes: also called AB0622-001
As for B11, the “fold improvement in BAFF-R binding” value in assay [1] was above 3 fold. The “KHYG-A-CD16Av mediated Cytolysis” value in assay [2] was 0.09 nM. The concentration giving a half-maximal response (EC50) in assay [3] is 3.45 nM.

B12: 3A1 (antibody, V domains shown)
VH: QVQLQQPGAELVKPGASVKLSCKASGYTFTSYWMHWVKQRPGQGLEWIGEIDPFDSYTNYNQNFKGKATLTVDKSSSTAYMLLSSLTSDDSAVYYCARERLRLWSYYFDYWGQGTTLTVSS
VL: DVVMTQTPLSLPVSLGDQASISCRSSQSIVHSNGNTYLEWYLQKPGQSPKLLIYKVSNRLSGVPDRFSGSGSGTDFTLKISRVEAEDLGVYYCFQGSHDPFTFGSGTKLEIK
notes: Mouse hybridoma mAb from DNA immunization; also called clone 3A1
With B12, the “EC50 (read off the curve)” value in [13] is around 0.3 nM.

B13: 7G4 (antibody, V domains shown)
VH: B12 VH with I51V, F54S, N63K, M81I, S85N, L101V, Y107F
VL: B12 VL
notes: Mouse hybridoma mAb from DNA immunization; also called clone 7G4
B13: in [13], the “EC50 (read off the curve)” value is around 0.3 nM.

B14: 10H7-C5 (antibody, V domains shown)
VH: EVQLVESGGGLVKPGGSLKLSCAASGFSFSRYAMSWVRQTPEKRLEWVATISDGGSYTHYRDNVKGRFTISRDNAKNNLNLQMSHLKSEDTAIYYCARNEMGLYFDYDVYAMDYWGQGTSVTVSS
VL: DIVMTQTPLSLPVSLGDQASISCRSSQSLLHSNGNTYLYWYLQKPGQSPKLLIHRVSNRFSGVPDRFGGSGSGTDFTLKIIRVEAEDLGVYFCFQGTHVPWTFGGGTKLEIK
notes: Mouse hybridoma mAb from DNA immunization; also called clone 10H7-C5
Turning to B14, the concentration giving a half-maximal response (EC50 (read off the curve)) in assay [14] is 1 to 10 nM.

B15: 1B3-A7 (antibody, V domains shown)
VH: EVQLVESGGGLVKPGGSLKLSCVVSGFTFSNYAMSWVRQTPEKRLEWVATISDGGGYTYYPDSVKGRFTISRDNAKNNLYLQMSHLKSEDTAIYYCARDDLGGGNYVSSYFDVWGTGTTVTVSS
VL: B14 VL with I2V, L15P, L30V, H54Y, G68S, I81N, W101L, G105S, I111L
notes: Mouse hybridoma mAb from DNA immunization; also called clone 1B3-A7
On to B15, for which the “EC50 (read off the curve)” value in assay [14] is around 2 nM.

B16: Ianalumab-mAb (antibody, V domains shown)
VH: QVQLQQSGPGLVKPSQTLSLTCAISGDSVSSNSAAWGWIRQSPGRGLEWLGRIYYRSKWYNSYAVSVKSRITINPDTSKNQFSLQLNSVTPEDTAVYYCARYQWVPKIGVFDSWGQGTLVTVSS
VL: DIVLTQSPATLSLSPGERATLSCRASQFILPEYLSWYQQKPGQAPRLLIYGSSSRATGVPARFSGSGSGTDFTLTISSLEPEDFAVYYCQQFYSSPLTFGQGTKVEIK
notes: Parental control mAb; also called Ianalumab-based tool-mAb; Tool-mAb
In the case of B16, the “EC50 (read off the curve)” value was around 0.4 nM in assay [15] and around 0.5 nM in assay [21]. Further, the IC50 worked out at 0.5 nM in assay [16] and 0.38 nM in [10]. Moreover, the “IC50 (read off the curve)” value in assay [17] was around 0.4 nM; in assay [18] it was around 0.4 nM; in assay [20], around 0.8 nM. This molecule also showed a concentration giving a half-maximal response (EC50) in assay [19] of 0.003 nM.
